Data reported in the supplement of paper PMC10567573.
± gives the standard deviation.

Assay: protein stability index of a GFP-peptide fusion (GPS, HEK-293T) (PSI 1-6); higher = more stable
[1] = treatment: DMSO, c terminus: a fixed tail appended
[2] = treatment: MLN4924 1 uM, 8 h, c terminus: a fixed tail appended
[3] = treatment: DMSO, c terminus: native
[4] = treatment: MLN4924 1 uM, 8 h, c terminus: native
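Also: 24-mer peptide tiles fused after GFP, lentivirally expressed, FACS-sorted into six equal bins by GFP/DsRed ratio, decoded by Illumina sequencing, PSI is the read-weighted mean bin number.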

Sequence	protein stability index [1]	protein stability index [2]	protein stability index [3]	protein stability index [4]
LLQNEFVGFMWRQRGRVISLWERL [MCOLN1]	2.7 ± 0.19	2.68 ± 0.26		
GTAPLNQETAEFFLSLDIPIGELY [ACSBG2]	1.89 ± 0.26	2.32 ± 0.26		
WQYLSGGKVKLQQNPGKFDELDMS [TBC1D10A]	3.16 ± 0.32	3.35 ± 0.26		
AYNHRTDLFKSFPGPMDWVPRYTG [ADAMTS4]	2.89 ± 0.14	2.82 ± 0.11		
YNNRGQIKYFRVDFYEAMDDYTSA [TTC32]	2.15 ± 0.29	2.35 ± 0.24		
WKYFKGNFYYFSLIPKTWYSAEQF [CD207]	3.12 ± 0.47	2.78 ± 0.71		
PEHRAFGSPFGLEEPQWVPDKECR [ZFYVE21]	4.57 ± 0.15	4.62 ± 0.28		
ELLVAHAYTRYLGDLSGGQVLKKI [HMOX1]	2.23 ± 0.86	2.32 ± 0.3		
CTSVNTIYDNAVQGLRRHEILQWV [LRRC59]	2.3 ± 0.17	2.13 ± 0.2		
QERQGPAKPEVLSIQWPGKRSSRR [NECAB1]	4.88 ± 0.21	4.93 ± 0.13		
RKVVQSLEQTAREILTLLQGVHQG [TSN]	2.34 ± 0.31	2.81 ± 0.53		
EVGMVKCGSRRERCGYRLVRRQRS [ESR2]	3.19 ± 0.35	3.27 ± 0.43		
VRCGLLGSLGPVPVLRFDALWQVL [TRIM14]	2.29 ± 0.39	2.29 ± 0.49		
QLDGLGFLYVTGHIKEILITAGGE [ACSBG2]	2.66 ± 0.54	2.44 ± 0.64		
KISYIGLMTQSSLETHHYVDCGGN [TMEM106C]	2.48 ± 0.24	2.45 ± 0.24		
SQWDVLSGDCDQRFRFPSPILKVQ [RBBP5]	3.34 ± 0.14	3.38 ± 0.32		
CVSIPDVVGWFVLFYKPGIVLLLA [GULP1]	2.63 ± 0.55	3.09 ± 0.066		
VQKRARSGPQPRLPPCLLPLSPPT [TRIB3]	3.35 ± 0.2	3.46 ± 0.23		
RNRPKSTVNTHYFSIDEELVYENF [CDC14A]	2.99 ± 0.37	3.39 ± 0.38		
TMLAGHYPFQDSEPVLLFGKIRRG [TRIB3]	2.56 ± 0.16	2.77 ± 0.25		
TVNTHYFSIDEELVYENFYADFGP [CDC14A]	2.37 ± 0.28	2.67 ± 0.4		
HLQHKLICTRKPEEIRGGGLLKYC [TENT5D]	2.21 ± 0.39	2.88 ± 0.095		

Sequence	protein stability index [1]	protein stability index [2]	protein stability index [3]	protein stability index [4]
FWRDWEDYAHGFGNISGEFWLGNE [TNXB]	2.78 ± 0.9	2.46 ± 0.51		
NNQITCRNGQWSEPPKCLDPCVIS [CFHR2]	3.34 ± 0.2	3.32 ± 0.25		
LEEELRQLKEEMARHLREYQELLN [PRPH]	3.27 ± 0.11	3.62 ± 0.32		
ECLPENLGGYVKIDLATWNFQFLP [PTPN9]	2.36 ± 0.33	2.21 ± 0.38		
DEDDEDEDEDEDEDEDEDKEEEEE [TAF7L]	5.46 ± 0.4	5.51 ± 0.1		
SGSLEILQLLLGCKARMERDGYGM [FEM1A]	2.92 ± 0.51	3.05 ± 0.6		
RQNSAPARMLSSNERDSSEPGNFI [CDC25A]	5.54 ± 0.31	5.45 ± 0.14		
LLEDARRKGMPFAQWDGPTVVSWL [PPFIA4]	2.11 ± 0.15	2.01 ± 0.33		
ACGDAFTVAIGAESEVYSWGKGAR [NEK8]	2.84 ± 0.23	2.77 ± 0.3		
PGAGSRRRGRMALCGQAAGAASLP [FBXO33]	2.76 ± 0.2	2.97 ± 0.17		
KLCTAHMCSTLEHNCAHFCINIPG [MATN2]	2.22 ± 0.38	2.22 ± 0.29		
QAGPSPAPPTPPEEEDLRRRLKYF [MCOLN1]	4.91 ± 0.14	4.99 ± 0.17		
SDLTLYLVVAVAAVSCVFLAFVIV [PCDHGA10]	2.97 ± 0.61	2.71 ± 0.5		
MTVEEIYKDRQKFSEQVFKVASSD [FLOT1]	3.83 ± 0.21	3.61 ± 0.31		
YVRMVFLALYVLFLADEEFDVVVC [ALG2]	3.1 ± 0.71	2.93 ± 1		
NISDADVHNAMDNYECNLYTFLYL [FEM1B]	2.25 ± 0.66	2.42 ± 0.45		
HNQKVHMHMVDLMSSIICEGDTVS [PDS5B]	2.46 ± 0.17	2.64 ± 0.26		
TISFLGCAIQMFSFLFLGCSHSFL [OR10K2]	3.14 ± 0.41	3.6 ± 0.52		
IDSGSPAEEAGLKNNDLVVAVNGE [PDZK1]	5.45 ± 0.48	5.58 ± 0.2		
MIVDLLSEKKTISFQGCMAQLFMD [OR4A15]	2.74 ± 0.52	2.42 ± 0.46		
VDGRLTYPTCGIGYPVSSAFAFQN [SASS6]	2.37 ± 0.23	2.38 ± 0.37		
RNHMENGGDHRYVNNYTNSFGGEW [TRIM29]	3.13 ± 0.16	3.15 ± 0.2		

Sequence	protein stability index [1]	protein stability index [2]	protein stability index [3]	protein stability index [4]
SRRSMAHILKARKVLTEPEVRYYL [PLK2]	2.48 ± 0.35	2.43 ± 0.15		
VKSRGKRLALEKVPKVGQRFNRIG [PI4K2A]	3.23 ± 0.49	3.46 ± 0.21		
EEGILVAVGQDCYTRIWSLHDARL [DCAF4]	2.26 ± 0.3	2.09 ± 0.31		
SYRETRRKEGIVKLKPHEEPLRSE [PTPN9]	4.66 ± 0.079	4.73 ± 0.3		
PLTRLGQLKACTNFDDILNVCDDY [KCNG1]	3.18 ± 0.29	3.34 ± 0.23		
STQTKKLSASSPRMLHRSTQTTND [ZMYND11]	4.71 ± 0.54	5.15 ± 0.17		
PGMPPPVPRPGIPPMTQAQAVSAP [ZNF207]	4.94 ± 0.15	4.86 ± 0.19		
TTDDTTAMASASSSATGSFSYPE [MAGEA10]			5.28 ± 0.14	5.4 ± 0.066
LSRCEFQRAKCKDPQLEIAYRGNC [SMOC2]	3.23 ± 0.42	3.14 ± 0.23		
QNLLGFTPEELHAILGVQPDTED [ETS2]			4.78 ± 0.39	4.85 ± 0.34
SYCPHCGEESSKAKEVTIAKADTT [EHMT1]	4.27 ± 0.19	4.58 ± 0.19		
LFQILSERQDMYQCLVEGCTEKFK [ZNF511]	2.24 ± 0.35	2.54 ± 0.6		
DGGALLGVLQYRGAELHLQPLEGG [ADAMTS4]	2.06 ± 0.94	2.52 ± 0.73		
LSLQDQVDTLTFQSQSLRDRARRF [MTUS2]	3.91 ± 0.26	3.84 ± 0.18		
VPRPGTPQSPPSCRAPPPEARGIR [FCHO1]	4.85 ± 0.42	4.85 ± 0.14		
AGQEGEDTLRRRLLAPEAGSHPQQ [TOR1AIP2]	3.22 ± 0.89	3.8 ± 0.52		
RPEKHTKEQILEFLVLEQFLTILP [ZNF232]	3.03 ± 0.62	3.4 ± 0.66		
NSSGDFSQAHSTLKLANHQRPVSR [TRAF3IP2]	4.43 ± 0.32	4.63 ± 0.38		
NSHFSLNVKTLKDGKPFPELVLEQ [PCDHGC5]	3.42 ± 0.18	3.76 ± 0.27		
AQDPDVGTNTVSFYTLSPNSHFSL [PCDHGC5]	2.57 ± 0.26	2.61 ± 0.3		
EDAVASADFSSMLSEEEKEELKAE [TPD52L1]	5.59 ± 0.3	5.54 ± 0.63		
